In US20060246076A1:

Biological target: murine inducible nitric oxide synthase (murine) (UniProt P29477)

PGE2 formation reduction: > 50%
Substance: COX2-myc fragment 484-604 (from UniProt P35354)
